Measurements published in patent US20140080161A1, “PHOSPHATASE COUPLED KINASE ASSAY” (RESEARCH AND DIAGNOSTIC SYSTEMS, INC., priority 2010, published 2014).

Key:
[1] = ADP hydrolysis curve with increasing amounts of phosphatase, free phosphate by Malachite Green; format: biochemical
Excerpt: The relative activity of the phosphatase on ADP and ATP can be measured by creating hydrolysis curves for ADP and ATP. For example, such hydrolysis curves may be created by performing a series of reactions separately combining set quantities of ADP or ATP with varying quantities of phosphatase and detecting the free phosphate produced. An example of such curves is described in Example 1 below. The resulting phosphate levels (or OD readings, which directly correspond to the phosphate levels) can be plotted against the amount of phosphatase used. The phosphate level or OD readings can be compared at the same quantity of the phosphatase to determine the relative activity of the phosphatase for ADP as compared to ATP. […] The amount of phosphatase to be used for kinase reactions is preferably selected from within the rapidly rising portion of the ADP hydrolysis curve. In addition, the relative activity of the phosphatase for ADP versus ATP is preferably compared within this rapidly rising portion of the hydrolysis curve, at or near the steepest portion of the curve. At phosphatase levels below this range, the generated signals are weak, while at phosphatase levels above this range, the ADP hydrolysis approaches completion, which could underestimate the activity of the phosphatase on ADP due to exhaustion of the substrate.
The kinase reactions were carried out in 50 μL of kinase assay buffer including 25 mM Tris, 150 mM NaCl, 5 mM MgCl2, and 5 mM CaCl2 at pH 7.5 in a 96 well plate at room temperature. Each reaction was stopped with 30 μL of Malachite Reagent A and 100 μL of water. The color was developed with 30 μL Malachite Reagent B. The plate was read at 620 nm with a multi-well plate reader. If the predicted phosphate content in the reaction was above 4,000 pmol, the reaction was diluted before phosphate detection.
In this experiment, the relative activity of rhCD39L2 on ADP and ATP was determined. In a first series of reactions, 100 nmol of 2 mM ATP was combined with increasing amounts of rhCD39L2 (0.03125 μg, 0.0625 μg, 0.125 μg, 0.25 μg, 0.5 μg) for 20 minutes. Likewise in a second series of reactions, 100 nmol of 2 mM ADP was combined with the same increasing amounts of rhCD39L2 for 20 minutes. The reactions were stopped after 20 minutes and free phosphate was measured using the Malachite Green assay as described above.
The relative activity of recombinant mouse CD 39L2 (rmCD39L2) on ADP and ATP was determined in a series of reactions similar to Example 1. 100 nmol of 2 mM ATP was combined with increasing amounts of rmCD39L2 (0.03125 μg, […], 0.125 0.25 μg, 0.5 μg). Likewise in a second series of reactions, 100 nmol of 2 mM ADP was combined with the same increasing amounts of rmCD39L2. The reactions were stopped after 5 minutes and free phosphate was measured using the Malachite Green assay as described above.
The experiment of Example 1 was repeated using recombinant human CD39L4 (rhCD39L4). 100 nmol of ATP (2 mM) was combined with increasing amounts of rhCD39L4 (0.03125 μg, 0.0625 μg, 0.125 μg, 0.25 μg, 0.5 μg, 1.0 μg). Likewise in a second series of reactions, 100 nmol of ADP (2 mM) was combined with the same increasing amounts of rhCD39L4 for 5 minutes. The reactions were stopped after 5 minutes and free phosphate was measured using the Malachite Green assay as described above. […] As such, the necessary preference of the phosphatase for ADP as compared to ATP is present.

[2] = ATP hydrolysis curve with increasing amounts of phosphatase, free phosphate by Malachite Green; format: biochemical; conditions: 0.25 μg phosphatase, 100 nmol of 2 mM ATP, 20 minutes
Excerpt: The relative activity of the phosphatase on ADP and ATP can be measured by creating hydrolysis curves for ADP and ATP. For example, such hydrolysis curves may be created by performing a series of reactions separately combining set quantities of ADP or ATP with varying quantities of phosphatase and detecting the free phosphate produced. An example of such curves is described in Example 1 below. The resulting phosphate levels (or OD readings, which directly correspond to the phosphate levels) can be plotted against the amount of phosphatase used. The phosphate level or OD readings can be compared at the same quantity of the phosphatase to determine the relative activity of the phosphatase for ADP as compared to ATP. […]
The kinase reactions were carried out in 50 μL of kinase assay buffer including 25 mM Tris, 150 mM NaCl, 5 mM MgCl2, and 5 mM CaCl2 at pH 7.5 in a 96 well plate at room temperature. […] The color was developed with 30 μL Malachite Reagent B. The plate was read at 620 nm with a multi-well plate reader. […]
In this experiment, the relative activity of rhCD39L2 on ADP and ATP was determined. […] The reactions were stopped after 20 minutes and free phosphate was measured using the Malachite Green assay as described above.
The relative activity of recombinant mouse CD 39L2 (rmCD39L2) on ADP and ATP was determined in a series of reactions similar to Example 1. […]

[3] = Specific activity of the phosphatase (free phosphate released per time per amount); format: biochemical
Excerpt: Phosphatases used in embodiments of the invention have a high specific activity on ADP. The specific activity of the phosphatase used in the examples is the amount of free phosphate released from a substrate per unit time and per amount of phosphatase under a given set of conditions, and may be determined at the rising phase of an enzymatic dose curve, such as the hydrolysis curve as described above. In some embodiments, the phosphatase has a specific activity of greater than 100 pmol/min/μg under optimal conditions. The conditions may include optimal pH, salt concentrations, and the presence of any cofactor. In other embodiments, the phosphatase has a specific activity of greater than 1,000 pmol/min/μg. In still other embodiments, the phosphatase has a specific activity of greater than 20,000 pmol/min/μg. When phosphatases having lower specific activity are used, larger amounts of such phosphatases or longer reaction times may be used to achieve the same level of hydrolysis as can be achieved with a phosphatase having higher specific activity.

[4] = enzyme as obtained from R&D Systems; cited from earlier work

phosphate released from ADP ([1]; 0.25 μg phosphatase, 100 nmol of 2 mM ADP, 20 minutes): about 80 nmol
fold more active on ADP ([1]; Example 1, 20 minutes, allowing for two hydrolyzable phosphates of ATP): about 70 fold
fold more phosphate released from ADP than from ATP ([1]; rising phases of the ADP hydrolysis curve, 20 minutes): 35 fold
phosphate released from ATP [2]: less than 3 nmole
B1: rhCD39L2: recombinant human CD39L2, nucleotide phosphatase preferring ADP over ATP, used for coupling (protein, UniProt O75354 1-484, looked up)
Ectonucleoside triphosphate …: MKKGIRYETSRKTSYIFQQPQHGPWQTRMRKISNHGSLRVAKVAYPLGLCVGVFIYVAYIKWHRATATQAFFSITRAAPGARWGQQAHSPLGTAADGHEVFYGIMFDAGSTGTRVHVFQFTRPPRETPTLTHETFKALKPGLSAYADDVEKSAQGIRELLDVAKQDIPFDFWKATPLVLKATAGLRLLPGEKAQKLLQKVKKVFKASPFLVGDDCVSIMNGTDEGVSAWITINFLTGSLKTPGGSSVGMLDLGGGSTQIAFLPRVEGTLQASPPGYLTALRMFNRTYKLYSYSYLGLGLMSARLAILGGVEGQPAKDGKELVSPCLSPSFKGEWEHAEVTYRVSGQKAAASLHELCAARVSEVLQNRVHRTEEVKHVDFYAFSYYYDLAAGVGLIDAEKGGSLVVGDFEIAAKYVCRTLETQPQSSPFSCMDLTYVSLLLQEFGFPRSKVLKLTRKIDNVETSWALGAIFHYIDSLNRQKSPAS
specific activity on ADP [3]: > 20,000 pmol/min/μg
specific activity [4]: > 20,000 pmol/min/μg
